The results in this text go back to patent publication US20250276075A1, “METHODS OF TREATING AXL-EXPRESSING CANCERS WITH ANTI-AXL ANTIBODIES, ANTIBODY FRAGMENTS AND THEIR IMMUNOCONJUGATES” (BIOATLA, INC., priority 2020, published 2025).

Assay [1] concerns the target Axl (UniProt P30530). Nature of the assay: ELISA, 1:9 dilution. A general note: An ELISA detects its analyte on a solid surface through an enzyme-linked reagent.
Assay [2] has as its target T1, Axl (Homo sapiens, UniProt P30530).
T1 sequence (P30530 26-451 limits assumed): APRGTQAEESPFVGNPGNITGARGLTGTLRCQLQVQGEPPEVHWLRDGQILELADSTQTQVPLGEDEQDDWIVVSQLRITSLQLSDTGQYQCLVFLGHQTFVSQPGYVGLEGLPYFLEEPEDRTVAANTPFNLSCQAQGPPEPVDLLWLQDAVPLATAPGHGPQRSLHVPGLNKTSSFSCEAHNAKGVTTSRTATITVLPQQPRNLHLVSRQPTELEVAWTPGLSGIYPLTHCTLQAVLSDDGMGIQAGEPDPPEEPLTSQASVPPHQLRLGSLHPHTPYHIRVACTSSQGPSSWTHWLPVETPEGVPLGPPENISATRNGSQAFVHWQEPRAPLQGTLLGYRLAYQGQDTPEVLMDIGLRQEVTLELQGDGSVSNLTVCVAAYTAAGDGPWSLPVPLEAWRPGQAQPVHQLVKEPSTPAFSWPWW
Nature of the assay: Affinity ELISA of CPE mutant antibodies for binding to Axl at pH 6.0 over pH 7.4. The note with it: for Affinity ELISA CPE mutant ratio (1:3, pH 6.0/7.4): 1:3 dilution; for Affinity ELISA CPE mutant ratio (1:9, pH 6.0/7.4): 1:9 dilution. The text has this:
The DNA encoding the wild-type antibody was evolved to generate a mutant antibody library using Comprehensive Positional Evolution (CPE), which each position in the template antibody is randomized one at a time. Each mutant antibody in the library has only one single point mutation. The mutant antibodies in the library were generated by simultaneously screening for selective binding affinity to Axl at pH 6.0 over pH 7.4 by ELISA. Two mutant antibody dilutions were used: 1:3 and 1:9 dilutions. The mutant antibodies that have at least 1.5 ratio of binding affinity at pH 6.0 to at pH 7.4 under either 1:3 or 1:9 dilution are selected as conditionally active antibodies, with the single point mutations indicated in each of the heavy chain and light chain variable region (Tables 1 and 2).
A wild-type antibody to Axl was selected as the template antibody (with a heavy chain variable region of 063-hum10F10-HC in FIG. 1A and a light chain variable region of […]). The DNA encoding the wild-type antibody was evolved to generate a mutant antibody library using Comprehensive Positional Evolution (CPE), a method by which each position in the template antibody is randomized one at a time. Each mutant antibody in the library has only one single point mutation. The mutant antibodies in the library were generated by simultaneously screening for selective binding affinity to Axl at pH 6.0 over pH 7.4 as determined by ELISA.
Simultaneously, the expression level of the mutant antibodies was also optimized for the purpose of higher fields in a manufacturing process. The screening was done in serum using a FLAG tag because there were human antibodies in the serum which might cause false positives for the screening. The screening buffer was a carbonate buffer (Krebs buffer with ringer-standard buffer but different from PBS). […] Some of the selected mutant antibodies (scFv) were represented in FIG. 2 with their higher activity at pH 6.0 than at pH 7.4, while their activity ratios between pH 6.0 to pH 7.4 were at least 11 fold (FIG. 3).

In assay [3] the target is Axl (UniProt P30530). As to the kind of experiment: ELISA, 1:3 dilution.
Setting [4] is: light chain variable region mutants.
The mark [5] stands for this setting: heavy chain variable region mutants.

B1: LC-A034N (antibody, V domains shown)
VH: EVQLVQSGAEVKKPGATVKISCKVSGYSFTGHTMNWIRQPPGKGLEWIGLIKPSNGGTSYNQKFKGRVTISADKSISTAYLQWSSLKASDTAMYYCAHGHYESYFAMDYWGQGTLVTVSS
VL: DIQMTQSPSSLSASVGDRVTITCKASQDVSSAVNWYQQKPGQAPRLLIYWASTRHTGVPSRFSGSGSGTEFTLTISSLQPDDFATYYCQEHFSTPLTFGQGTKVEIK
Take B1: the Affinity ELISA CPE mutant ratio (1:9, pH 6.0/7.4) was determined as 2.4 in the assay with Axl [1] and 2.403 in the assay with Axl [2] (setting [4]). In addition, the “Affinity ELISA CPE mutant ratio (1:3, pH 6.0/7.4)” value worked out at 2.626 in the assay with Axl [2] (setting [4]) and 2.63 with Axl [3].

B2: LC-P095A (antibody, V domains shown)
VH: EVQLVQSGAEVKKPGATVKISCKVSGYSFTGHTMNWIRQPPGKGLEWIGLIKPSNGGTSYNQKFKGRVTISADKSISTAYLQWSSLKASDTAMYYCAHGHYESYFAMDYWGQGTLVTVSS
VL: DIQMTQSPSSLSASVGDRVTITCKASQDVSSAVAWYQQKPGQAPRLLIYWASTRHTGVPSRFSGSGSGTEFTLTISSLQPDDFATYYCQEHFSTALTFGQGTKVEIK
For B2, the Affinity ELISA CPE mutant ratio (1:9, pH 6.0/7.4) stood at 2.99 in the assay with Axl [1] and 2.987 in the assay with Axl [2] (setting [4]). Also, the “Affinity ELISA CPE mutant ratio (1:3, pH 6.0/7.4)” value was determined as 2.523 in the assay with Axl [2] (setting [4]) and 2.52 with Axl [3].

B3: LC-F092N (antibody, V domains shown)
VH: EVQLVQSGAEVKKPGATVKISCKVSGYSFTGHTMNWIRQPPGKGLEWIGLIKPSNGGTSYNQKFKGRVTISADKSISTAYLQWSSLKASDTAMYYCAHGHYESYFAMDYWGQGTLVTVSS
VL: DIQMTQSPSSLSASVGDRVTITCKASQDVSSAVAWYQQKPGQAPRLLIYWASTRHTGVPSRFSGSGSGTEFTLTISSLQPDDFATYYCQEHNSTPLTFGQGTKVEIK
Regarding B3, the Affinity ELISA CPE mutant ratio (1:9, pH 6.0/7.4) with Axl [1] worked out at 2; with Axl [2] (setting [4]) it was 2.004. The “Affinity ELISA CPE mutant ratio (1:3, pH 6.0/7.4)” value in the assay with Axl [2] (setting [4]) was 1.933; with Axl [3], 1.93.

B4: LC-F092S (antibody, V domains shown)
VH: EVQLVQSGAEVKKPGATVKISCKVSGYSFTGHTMNWIRQPPGKGLEWIGLIKPSNGGTSYNQKFKGRVTISADKSISTAYLQWSSLKASDTAMYYCAHGHYESYFAMDYWGQGTLVTVSS
VL: DIQMTQSPSSLSASVGDRVTITCKASQDVSSAVAWYQQKPGQAPRLLIYWASTRHTGVPSRFSGSGSGTEFTLTISSLQPDDFATYYCQEHSSTPLTFGQGTKVEIK
With B4, the Affinity ELISA CPE mutant ratio (1:9, pH 6.0/7.4) worked out at 2.94 with Axl [1] and 2.937 in the assay with Axl [2] (setting [4]). The “Affinity ELISA CPE mutant ratio (1:3, pH 6.0/7.4)” value turned out to be 3.179 with Axl [2] (setting [4]) and 3.18 in the assay with Axl [3].

B5: LC-A051I (antibody, V domains shown)
VH: EVQLVQSGAEVKKPGATVKISCKVSGYSFTGHTMNWIRQPPGKGLEWIGLIKPSNGGTSYNQKFKGRVTISADKSISTAYLQWSSLKASDTAMYYCAHGHYESYFAMDYWGQGTLVTVSS
VL: DIQMTQSPSSLSASVGDRVTITCKASQDVSSAVAWYQQKPGQAPRLLIYWISTRHTGVPSRFSGSGSGTEFTLTISSLQPDDFATYYCQEHFSTPLTFGQGTKVEIK
Turning to B5, the Affinity ELISA CPE mutant ratio (1:9, pH 6.0/7.4) in the assay with Axl [1] came out at 2.14; with Axl [2] (setting [4]), 2.139. Moreover, the “Affinity ELISA CPE mutant ratio (1:3, pH 6.0/7.4)” value with Axl [2] (setting [4]) is 2.241; with Axl [3], 2.24.

B6: LC-W050F (antibody, V domains shown)
VH: EVQLVQSGAEVKKPGATVKISCKVSGYSFTGHTMNWIRQPPGKGLEWIGLIKPSNGGTSYNQKFKGRVTISADKSISTAYLQWSSLKASDTAMYYCAHGHYESYFAMDYWGQGTLVTVSS
VL: DIQMTQSPSSLSASVGDRVTITCKASQDVSSAVAWYQQKPGQAPRLLIYFASTRHTGVPSRFSGSGSGTEFTLTISSLQPDDFATYYCQEHFSTPLTFGQGTKVEIK
For the molecule B6, the results for the Affinity ELISA CPE mutant ratio (1:9, pH 6.0/7.4) with Axl [1] and with Axl [2] (setting [4]) were 3.5 and 3.504, respectively. Moreover, the “Affinity ELISA CPE mutant ratio (1:3, pH 6.0/7.4)” value in the assay with Axl [2] (setting [4]) worked out at 2.245; with Axl [3], 2.25.

B7: LC-F092G (antibody, V domains shown)
VH: EVQLVQSGAEVKKPGATVKISCKVSGYSFTGHTMNWIRQPPGKGLEWIGLIKPSNGGTSYNQKFKGRVTISADKSISTAYLQWSSLKASDTAMYYCAHGHYESYFAMDYWGQGTLVTVSS
VL: DIQMTQSPSSLSASVGDRVTITCKASQDVSSAVAWYQQKPGQAPRLLIYWASTRHTGVPSRFSGSGSGTEFTLTISSLQPDDFATYYCQEHGSTPLTFGQGTKVEIK
On to B7, for which the Affinity ELISA CPE mutant ratio (1:9, pH 6.0/7.4) in the assay with Axl [1] worked out at 4.76; in the assay with Axl [2] (setting [4]) it was 4.758. Further, the “Affinity ELISA CPE mutant ratio (1:3, pH 6.0/7.4)” value in the assay with Axl [2] (setting [4]) was 3.692; with Axl [3] it was 3.69.

B8: LC-T094C (antibody, V domains shown)
VH: EVQLVQSGAEVKKPGATVKISCKVSGYSFTGHTMNWIRQPPGKGLEWIGLIKPSNGGTSYNQKFKGRVTISADKSISTAYLQWSSLKASDTAMYYCAHGHYESYFAMDYWGQGTLVTVSS
VL: DIQMTQSPSSLSASVGDRVTITCKASQDVSSAVAWYQQKPGQAPRLLIYWASTRHTGVPSRFSGSGSGTEFTLTISSLQPDDFATYYCQEHFSCPLTFGQGTKVEIK
Consider B8, for which the Affinity ELISA CPE mutant ratio (1:9, pH 6.0/7.4) in the assay with Axl [1] turned out to be 1.77; in the assay with Axl [2] (setting [4]), 1.768. Also, the figures for the “Affinity ELISA CPE mutant ratio (1:3, pH 6.0/7.4)” value with Axl [2] (setting [4]) and with Axl [3] were 1.423 and 1.42, respectively.

B9: LC-A051N (antibody, V domains shown)
VH: EVQLVQSGAEVKKPGATVKISCKVSGYSFTGHTMNWIRQPPGKGLEWIGLIKPSNGGTSYNQKFKGRVTISADKSISTAYLQWSSLKASDTAMYYCAHGHYESYFAMDYWGQGTLVTVSS
VL: DIQMTQSPSSLSASVGDRVTITCKASQDVSSAVAWYQQKPGQAPRLLIYWNSTRHTGVPSRFSGSGSGTEFTLTISSLQPDDFATYYCQEHFSTPLTFGQGTKVEIK
In the case of B9, the Affinity ELISA CPE mutant ratio (1:9, pH 6.0/7.4) is 2.2 with Axl [1] and 2.200 with Axl [2] (setting [4]). Moreover, the “Affinity ELISA CPE mutant ratio (1:3, pH 6.0/7.4)” value came to 1.412 with Axl [2] (setting [4]) and 1.41 in the assay with Axl [3].

B10: LC-A034Q (antibody, V domains shown)
VH: EVQLVQSGAEVKKPGATVKISCKVSGYSFTGHTMNWIRQPPGKGLEWIGLIKPSNGGTSYNQKFKGRVTISADKSISTAYLQWSSLKASDTAMYYCAHGHYESYFAMDYWGQGTLVTVSS
VL: DIQMTQSPSSLSASVGDRVTITCKASQDVSSAVQWYQQKPGQAPRLLIYWASTRHTGVPSRFSGSGSGTEFTLTISSLQPDDFATYYCQEHFSTPLTFGQGTKVEIK
Turning to B10, the Affinity ELISA CPE mutant ratio (1:9, pH 6.0/7.4) is 1.41 in the assay with Axl [1] and 1.409 in the assay with Axl [2] (setting [4]). Besides, the results for the “Affinity ELISA CPE mutant ratio (1:3, pH 6.0/7.4)” value with Axl [2] (setting [4]) and with Axl [3] were 1.999 and 2, respectively.

B11: LC-A051P (antibody, V domains shown)
VH: EVQLVQSGAEVKKPGATVKISCKVSGYSFTGHTMNWIRQPPGKGLEWIGLIKPSNGGTSYNQKFKGRVTISADKSISTAYLQWSSLKASDTAMYYCAHGHYESYFAMDYWGQGTLVTVSS
VL: DIQMTQSPSSLSASVGDRVTITCKASQDVSSAVAWYQQKPGQAPRLLIYWPSTRHTGVPSRFSGSGSGTEFTLTISSLQPDDFATYYCQEHFSTPLTFGQGTKVEIK
For the molecule B11, the Affinity ELISA CPE mutant ratio (1:9, pH 6.0/7.4) was determined as 1.57 with Axl [1] and 1.569 in the assay with Axl [2] (setting [4]). The “Affinity ELISA CPE mutant ratio (1:3, pH 6.0/7.4)” value with Axl [2] (setting [4]) stood at 1.920; in the assay with Axl [3], 1.92.

B12: HC-E102R (antibody, V domains shown)
VH: EVQLVQSGAEVKKPGATVKISCKVSGYSFTGHTMNWIRQPPGKGLEWIGLIKPSNGGTSYNQKFKGRVTISADKSISTAYLQWSSLKASDTAMYYCAHGHYRSYFAMDYWGQGTLVTVSS
VL: DIQMTQSPSSLSASVGDRVTITCKASQDVSSAVAWYQQKPGQAPRLLIYWASTRHTGVPSRFSGSGSGTEFTLTISSLQPDDFATYYCQEHFSTPLTFGQGTKVEIK
For B12, the values for the Affinity ELISA CPE mutant ratio (1:9, pH 6.0/7.4) with Axl [1] and in the assay with Axl [2] (setting [5]) were 3.42 and 3.416, respectively. Moreover, the figures for the “Affinity ELISA CPE mutant ratio (1:3, pH 6.0/7.4)” value in the assay with Axl [2] (setting [5]) and with Axl [3] were 3.701 and 3.7, respectively.
